Assay results from the DeepSol protein solubility set.

Assay: soluble on expression in E. coli; label from the status in PepcDB or PDB records

Row | Sequence | soluble on expression in E. coli
1 | MSLDNNIKIIPFGGVRENGKNMYAVEIEDQIFILDTGLKYPENELMGIDVVIPDWEYLREHKDKIVGVFLTHGHADSIGALPYFLMDFNVPVFGSEMTIALAKLAVKNHKEVKKFNDFHVVDASTAIDFNDVTVSFFQTTHTIPETLGVVLETKAGNIVYTGDFKFDQTAKKGYQTDLARLAEIGSQGVLALLSDSAGAGITGASAREQDIGDYIKETFKYQNGRIIVASVASNIMRVQQIINAAVAVGRKIVLSGKDIEQIIDTAMSLGKLHLPDDLFISRKEAEKLEPNQVVILETGKMGEPIKSLQQIANGDNPNLQLTSTDLVFVTTTPSYAQETEVQKTKDMIYRTGAEVKFISDDLNPSGHANQNDEQLMLNFMKPKFFIPIQGEYRLLDRHAELAEEVGIPKENIFLVNKGDVLTYKNGKFHVGEHIDVSNTMIDGTGVGDIGNIVLRDRRVLSEDGIFVVVATIDRKKKKIVARPQITSRGFVFVKTNRQLMQQSADLVEKIVQENLDQKEFDWSHLKQDVRDKLNRFLFDQTKRHPVILPVIMEINQHQKKIKNEGHHHHHH | soluble
2 | MSLDPQYDGVWRQSLALLAQDTAGVIPSSTAVKWLTDQQCANGAFAPFRADPAKACDAKTPVDTNNTAAAVQALWAVGGHGDVIEEALGWLKSVQNEDGGWGYVPGTPSDANSTSVVIGALTATETDPAKVVKDGKSPYDALLTFALPCAKDKGAGAFAFQPDKDGKLLPNADATAAGVLGTLGEGLVAEAGKKTGAASCADADQPDRERAAANAAAYLTDTLAKDGHLVSALGGSADQPDYGNTADAVVALAAQGGADKAAEPLAWLKKNAAKWAGEGHHHHHH | soluble
3 | MSLDRKGNPVVRWDNNWLGSNEPCEDRWATDLVRRDGAAGGAVGKAVNFWTRWYRGDSIPSESAPAEEDEAARGKHDLMLFSIMDGHAGDATSRLLQKSLHPTISMALAGLQRGNVPPRHNVWERWAGYLNPWYWLGTDTVWTPENVSKTIQNAFVQLDDNICQTPLKLLPTLSSPSTSSPTPRETLVALAQPAAAGACAISTLVDSENDDLYVAVTGDCRAVAGWEGEDGKWRCDVLSEDQMGDNPKEIERMRSEHPASERDTVIRNGRVQGGLQPTRAFGDAVYKWTNAQAAQIADAFRAQGERPRPGRPWNYTPPYVTARPEVTYRKLNAHTGEKLRFIVLATDGLWDRITSEESTLLLASYLSHPSHAPLPKSALPRREGHHHHHH | soluble
4 | MSLDRYLGFANSNLGRRLVDALGLPRPAPLERWQAGRLRPVEGALVLGGGPLAKQVEAIAPRLTDEVYSFNADNLQAEAWVAGLGPKIKAVVFDASHLSDSDALKQLREFFQPLLRSLAPCAHVLVLGRAPEGLDDPLASVAQRALEGFSRSLAKELRNGATAQLLYVAPGAEDQLEGALRFFLSPKSAFISGQVLRLQGCTSQVEDWTRPLGGRRALVTGAARGIGAAIAETLARDGADVLLLDVPQASKDLDALAARLGGKALPLDICASDAATQLLAALPDGIDIVVHNAGITRDKTLVNMTPEYWDAVLAVNLKAPQVLTQALYDNGALGENARITLLASVSGIAGNRGQANYAASKAGLIGLAQAWAPRLAERGGSINAIAPGFIETHMTAAMPMGLREAGRRLSSLGQGGSPQDVAEAIAWLSQPGSGSVNGQVLRVCGQALMGAEGHHHHHH | soluble
5 | MSLDSQQKLAAQVTTPLTLSGDNQQAVAIFDQADPRIRIVYFGFTRCPDVCPTSLAMLSAALNQVDDKTKAQLRPMFISLDPERDDAKLAAQYAHYFHPMIEGLSGSVATTNQIAQKYGVIFRKTELPNSELKYTLDHSSYFYFLQPDGTLINKVPHTQDPTPIVDAIKKVIQEGHHHHHH | soluble
6 | MSLDSSMKISKVDNIGNHEDIEVNNAEIALSLASQMVGSGEEVVSMSIKYSKERVAFGKPIGSYQAIKHRVVNDAIDVELARSLILEAAENIKYAWIAKDLANKKIPKAILSGIQVHGGIGFTDDLDIHLHLRRALTLSKLYNSKVNISEFLQPIEGHHHHHH | not soluble
7 | MSLDSYRTARLMQEGVTYPVIVRPHNQILENRINRIIRETAEELLPSGRYRTMNIITAASEYETTVNKNEILSIRFENYYYPEMMASGITVVRAVTLNLVTGRRYRLKDLFIPGIDYEDYLNRLIERQIEERDIPLINDFPGITGNEVFYLTEGELVIVYQRYELTPGYYGVLEFEIPYEELQPLIDETSPIYMIAQNSEGHHHHHH | soluble
8 | MSLDTEAVLAAVEDAPVRETLDSMVASLKSHEDSEFAGAIATFTGRVRERDDPDDTPTQHLEFERYDTVAEQRMATIREQLCERDGVYDVRMHHRTGVVPAGDDVVHVVVLAGHRGDAFRAVSDGIDRLKDEVPLFKKEVTVDDAFWRHDEGHHHHHH | soluble
9 | MSLDTTPEHLVGTDAETIDLSFAAPAAPVEILHAAFATALEQLPRHFERHGYDRYGTAELREAVARWYQRRGLPTRPDHILITNGAQHALALLTRVLLSPRDKVLIDHPTYPHAITTFTQARARLLPVAVTSSGWDTEQLQAAGQAANLAYLIPDFHNPTGMCMPTSVRQQLRLACPTVVDETMTDLALDVPSPEPLALHMPTAISIGSVSKSVWGGLRTGWIRALPSLLERVEQARPTTDLGTPVVEQLATAVLLNEHQTQRPDTLQQLRSQRDALWQALTEHLPNVHAPQPAGGVTLWAAFPGPVSSRLAAMAPDHGVTIAAGPRFGIGGAFERNIRLPYTLPSSQLAQAIRRLAQAAQALAQGATGTEGHHHHHH | not soluble
10 | MSLEATIRLGSSLPLTGHARYLGVETLRGALAYINHVNDSGGVHGRRIELDARDDGYDPPRCLANTQEQLISGEVFALTCYVGTPTTMRILPLVDEARIPLVGAFTGANGLRDPFSRYVFNVRASYYQETDAAVRHLVHDLGLTRIAVFYQYDAYGFDGLTGTELALRELGLAPVARGSYARGTDNIEDGLHRIIASDAEAVLMVGTSEPTARFIRMAEEAGFDAVYHALSFTGAEELARLLGHTDAKVLLSQVVPPPDAPEAPAILGCTTEYVNLLKRYYPDATPSAIGLEGYINARILVEGLRRAGPDLTREGFVRALESLRDYPLGGRTVVSFSPESRQGMGSVYFTRLVGGRFELMREAGAPPSAARPASNKGEGHHHHHH | soluble
11 | MSLEDGPVTNPRQEEPQKVVKEEGFARGADVSWLTQMEAEGLKFYTPDENRQEMECMDLLRDYCGVNSIRLRVWVNPKDGWNNMNDVIVKAKRAERLGLRTMIDFHFSDTWADPGHQEMPEAWKELSFDDLKIALSEHVKSVLTALKAVGVTPEWVQVGNETTPGMMLPVGSVDNPEQLTALNNAGYDAVKAICPDAKVIVHLDAGNDQWVYNRMFDILQANGGKYDMIGMSLYPYWAEQEGKTGGWLKVADDCIANIKHVKQKYNKPVMICEIGMPYDQAEACKQLITKMMQADVEGIFYWEPQAPNGYNDGYNLGCFDNNAPTIALDAFKIEGHHHHHH | soluble
12 | MSLEGINPAVIMKAIMQSESVEQLSQEREKAEKLLKMYIAQDVAIHFISNIFTELNDALIVKAIEFSVADMKREGIDLPDIEFCWLSLGSEGRKEQLLRTDLDNAILFRDPENEASRETVQRVFLELGKRVTAILVACGFKPCPAEIMASNPEWCQPLSGWMNYFRKWIGTPEPKALMNSTIFFDFRPVYGSTALALEMKREINTEIARGRGFLQFFAKNALQNPPPLGFFRNFLVEKSREHAHEFDIKARALMPLSDAARVLACEFGVTDFLGTVERFRRIGQLLPSFQELAEEAAQGYEFLMRLRTEHGLAEKSSGRYIDPKHLNKMQRQKLRDLFTTIGKVQSMLNLRYQLDYIRAEGHHHHHH | soluble
13 | MSLEGTQMLATNKKCWDTVAPYFFQVDCLPKYGPYTASEDEIRLFDSIRKKKVLDIGCGSGHSLQYMAEQGAEELWGLDLSSTQIEIANKTLKDWNPKLVCGAMEEEGDIPKGYFDIVYSIYALGWTSDLRKTLELIYSYVKPGGSFIFSWEHPVYSNLQYGTEEVAIKSSYHEETPITFETFKGENVQATLHKRKISTYINELNRAGFKIERIEEPEPSSSLDGELAEPSTKYYSLYKARMVPTTFIIKARKEGHHHHHH | soluble
14 | MSLEINKGEGAVLGKEFFCEEEPGYLIEEEEEKELLEFISSGNLEIDRRLEGGIPAGSLCLLEGANDSGKSIFLQQIIWGALNQDKTVLFLTTEKTSKEVLNQMESLKRGISDYFIIGRSKIFEINAGYVEENPRLSESLLQVLLECIQRCEEELVLIDSLTIFAVNASENAVLNFFTECVKLCDRGKTILISVHGYAFSQAVLYRLRSVCSACLELRIEQVGDQWVKTMEIQKLRGARKTTGNLLSFDVDSEFGLKIIPVSKIKAEGHHHHHH | soluble
15 | MSLEKELVTWFNILNKPPLEYLKGVEDFYNAYGEVLEMQDRHAHLLSYKDDDYLHVILCASILHHYSDQDIETLKELLVKFYYQDWVAGQTKTTRSQTCCNIINVLKEKKSMDYITSIVKEYLDDKNITQRFKDNLKDSNLYTKFYFINGKTAKKNSWVKPILILVEYFMSDNANPACIKMDDDLHVERILPQNPDPSSQWMKDFSEEERGLYTHSLANLTLLGGKKNTKALSQALNQDFKEKKEIYMGKTIMLDNKKTFRVMTCYDMTKNDVCRYTEWTPTSLEKRKESEGHHHHHH | not soluble
16 | MSLEKQKLIKLIDVAAGRKKADLVLKNAKIVDVFQAKILTGDIAISDGYIAGIGGSYQGVVECNYTGKYVAPGFIEAHIHIESSYVSPEEFSRVFIPRGTTTILADPHEIVNVAGLKGLDYMVNAAKNAKMDIRYMMPPCVPATNFETSGADLYADDMEDALKTGEVDGLAELMNFPGVINADDKMIDEILMAKKYGARIDGHAPQVVGKDLNAYIAAGPANDHECSTLEEAEERLARGMYLLLREGSVTQDLRKLLPIVNTANSRRCLLSGDDVQAKTAINKGHLDNSIRICIDEGLNPITAIQMATLNPAEYCGLNDRGAIAPGRRADMVVFESLEDFAVEETYILGEKLSQGNEYLGEVNYYPIDSVESSMHVKDFTREKLQLHLNSDKVRAIGVVPGEVLTTEEHVTVKRDGDGNFVYNDQEDVTKIVVVERHHNTGNVNVNLLSGYGIKAGAIAISIGHDSHNIIATGTNDDDIFMAVNELIKQEGGAVVVKDEKVISRMELKIAGLMCNLPAEKMIAQQDALDEAVHEELGVPDNVNPVMTLSFMPLAVIPKLKITDKGLVDVEKNAFVSNELDEGHHHHHH | soluble
17 | MSLEKSGFIVHQKFDSILQLEDFDSLDRALKESESYYQKLPSNWKTQVRKTSYHKNQMLNSLKILKKILREKNPESRKIQFQNSFLLLETKDEALGRITAYYEVIIEGRFYPEGDFIYPVLETPSDLIVKKDGNKKSVGKIINEVFVPYETREELSHTSVWKKRSKAIVYVKIVDLHLAQLEGSAFVKVPDHIPFRITYSEDNGKEYQSPAESLKGICSSLIPSDLKSCILKYPKEVEMAILKNPRYIFFKLESSAPRGSGGIELIPKRSVAMDPGIPLGIPVLISFESSVLTEKNRIVFVHDRGSQITGHGRLDYFLGTGETAEYQAGKINTQGKIFLILPKIKNEGHHHHHH | soluble
